Experimental data published in patent US20260049134A1 (UNIVERSITY OF FLORIDA RESEARCH FOUNDATION, published 2026).

Tests used:
[1] = target: T1, PTPRG, endogenous in H929 multiple myeloma cells (human, UniProt P23470 20-1445); assay: flow cytometry, AF647-IgG1 on H929 cells
T1 construct: Native protein on H929 cells (flow cytometry, siRNA knockdown) and in H929 lysates (IP/MS); also called phosphatase receptor type γ
Procedure: (§1) Staining protocol. Cells were harvested (5×10⁴ cells per sample), washed once with phosphate-buffered saline (PBS) at RT, and a second time with ice-cold FACS buffer (PBS, 0.5% BSA, 2 mM EDTA, 0.1% NaN₃). Cells were stained in 50 μL of primary antibody for 30 min on ice, washed twice with 100 μL FACS buffer, stained with 50 μL of diluted secondary antibody, washed two more times in FACS, and then resuspended in 50 μL FACS buffer. Samples were acquired on an Accuri C6 Plus or a BD FACSCanto II flow cytometer (both from BD Biosciences). Data were analyzed using FlowJo version 10 software. Primary antibodies: Fab (10 μg/mL), IgG1 (0.1 to 50 μg/mL), or 25 μL polyclonal Fabs from periplasmic extracts. Polyclonal Fabs were produced by diluting bacterial stocks by a factor of 100 in autoinduction media and incubating overnight to induce expression as previously described. […] Viability stains: DAPI (Cell Signaling Technology) or SYTOX AADvanced Dead Cell Stain (Thermo Fisher Scientific). Labeling: The panel of chimeric rabbit/human IgG1s was labeled using the Alexa Fluor 647 Labeling Kit (Thermo Fisher Scientific, #A20173) to facilitate single-step staining. Competition: Unlabeled IgG1s were added at saturating concentrations of 60 μg/mL to block the target receptors, incubating on ice for 30 min, followed by the addition of an equal volume of the Alexa Fluor 647 labeled antibody at 2 μg/mL, and the mixture was incubated on ice for another 30 min.

[2] = target: T2, ICAM1, endogenous in H929 multiple myeloma cells (human, UniProt P05362 28-532); assay: flow cytometry, AF647-IgG1 on H929 cells
T2 construct: Native protein on H929 cells (flow cytometry, siRNA knockdown) and in H929 lysates (IP/MS); also called CD54
Procedure: as §1

[3] = target: T3, CADM1, endogenous in H929 multiple myeloma cells (human, UniProt Q9BY67 45-442); assay: flow cytometry, AF647-IgG1 on H929 cells
T3 construct: Native protein on H929 cells (flow cytometry, siRNA knockdown) and in H929 lysates (IP/MS); also called IGSF4A
T3 sequence: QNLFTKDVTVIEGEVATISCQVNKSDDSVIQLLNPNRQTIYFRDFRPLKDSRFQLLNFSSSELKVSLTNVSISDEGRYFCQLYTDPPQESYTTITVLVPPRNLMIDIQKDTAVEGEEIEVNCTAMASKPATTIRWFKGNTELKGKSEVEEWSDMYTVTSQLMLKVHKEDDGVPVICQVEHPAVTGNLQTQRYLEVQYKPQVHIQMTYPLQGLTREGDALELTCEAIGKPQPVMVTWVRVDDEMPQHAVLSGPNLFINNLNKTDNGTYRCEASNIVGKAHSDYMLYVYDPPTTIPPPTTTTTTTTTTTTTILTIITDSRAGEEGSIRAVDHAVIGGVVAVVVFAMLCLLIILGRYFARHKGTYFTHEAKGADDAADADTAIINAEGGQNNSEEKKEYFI
Procedure: as §1

[4] = target: T4, PTPRG on U266 cells (human, UniProt P23470); assay: flow cytometry, IgG1 on cell lines, heatmap of % positive cells
T4 construct: endogenous on U266 multiple myeloma cells; also called HW-1 target on U266

[5] = target: T1, PTPRG, endogenous in H929 multiple …; assay: flow cytometry, H929 + CDH18 siRNA; None 443
[6] = target: T1, PTPRG, endogenous in H929 multiple …; assay: flow cytometry, H929 + GARS siRNA; None 0.2
[7] = target: T2, ICAM1, endogenous in H929 multiple …; assay: flow cytometry, H929 + PTPRG siRNA; None 490
[8] = target: T2, ICAM1, endogenous in H929 multiple …; assay: flow cytometry, H929 + CDH18 siRNA; None 443
[9] = target: T2, ICAM1, endogenous in H929 multiple …; assay: flow cytometry, H929 + PTPRG siRNA; None 2.13
[10] = target: T2, ICAM1, endogenous in H929 multiple …; assay: flow cytometry, H929 + GARS siRNA; None 0.2
[11] = target: T3, CADM1, endogenous in H929 multiple …; assay: flow cytometry, H929 + CDH18 siRNA; None 443
[12] = target: T3, CADM1, endogenous in H929 multiple …; assay: flow cytometry, H929 + GARS siRNA; None 0.2

T2 sequence (P05362 28-532 limits assumed): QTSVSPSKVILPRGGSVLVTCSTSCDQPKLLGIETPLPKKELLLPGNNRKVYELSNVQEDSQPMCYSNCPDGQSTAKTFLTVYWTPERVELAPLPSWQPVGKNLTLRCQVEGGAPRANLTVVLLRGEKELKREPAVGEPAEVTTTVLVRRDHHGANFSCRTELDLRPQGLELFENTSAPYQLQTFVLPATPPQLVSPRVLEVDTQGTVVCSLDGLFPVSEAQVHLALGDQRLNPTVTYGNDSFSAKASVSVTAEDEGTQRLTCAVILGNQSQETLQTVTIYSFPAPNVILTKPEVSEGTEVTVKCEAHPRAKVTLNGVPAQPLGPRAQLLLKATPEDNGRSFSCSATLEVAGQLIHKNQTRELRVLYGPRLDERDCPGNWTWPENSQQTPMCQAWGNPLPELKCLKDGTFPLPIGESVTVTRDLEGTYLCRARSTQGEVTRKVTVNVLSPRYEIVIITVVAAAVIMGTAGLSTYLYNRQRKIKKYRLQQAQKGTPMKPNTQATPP
T1 sequence (P23470 20-1445 limits assumed): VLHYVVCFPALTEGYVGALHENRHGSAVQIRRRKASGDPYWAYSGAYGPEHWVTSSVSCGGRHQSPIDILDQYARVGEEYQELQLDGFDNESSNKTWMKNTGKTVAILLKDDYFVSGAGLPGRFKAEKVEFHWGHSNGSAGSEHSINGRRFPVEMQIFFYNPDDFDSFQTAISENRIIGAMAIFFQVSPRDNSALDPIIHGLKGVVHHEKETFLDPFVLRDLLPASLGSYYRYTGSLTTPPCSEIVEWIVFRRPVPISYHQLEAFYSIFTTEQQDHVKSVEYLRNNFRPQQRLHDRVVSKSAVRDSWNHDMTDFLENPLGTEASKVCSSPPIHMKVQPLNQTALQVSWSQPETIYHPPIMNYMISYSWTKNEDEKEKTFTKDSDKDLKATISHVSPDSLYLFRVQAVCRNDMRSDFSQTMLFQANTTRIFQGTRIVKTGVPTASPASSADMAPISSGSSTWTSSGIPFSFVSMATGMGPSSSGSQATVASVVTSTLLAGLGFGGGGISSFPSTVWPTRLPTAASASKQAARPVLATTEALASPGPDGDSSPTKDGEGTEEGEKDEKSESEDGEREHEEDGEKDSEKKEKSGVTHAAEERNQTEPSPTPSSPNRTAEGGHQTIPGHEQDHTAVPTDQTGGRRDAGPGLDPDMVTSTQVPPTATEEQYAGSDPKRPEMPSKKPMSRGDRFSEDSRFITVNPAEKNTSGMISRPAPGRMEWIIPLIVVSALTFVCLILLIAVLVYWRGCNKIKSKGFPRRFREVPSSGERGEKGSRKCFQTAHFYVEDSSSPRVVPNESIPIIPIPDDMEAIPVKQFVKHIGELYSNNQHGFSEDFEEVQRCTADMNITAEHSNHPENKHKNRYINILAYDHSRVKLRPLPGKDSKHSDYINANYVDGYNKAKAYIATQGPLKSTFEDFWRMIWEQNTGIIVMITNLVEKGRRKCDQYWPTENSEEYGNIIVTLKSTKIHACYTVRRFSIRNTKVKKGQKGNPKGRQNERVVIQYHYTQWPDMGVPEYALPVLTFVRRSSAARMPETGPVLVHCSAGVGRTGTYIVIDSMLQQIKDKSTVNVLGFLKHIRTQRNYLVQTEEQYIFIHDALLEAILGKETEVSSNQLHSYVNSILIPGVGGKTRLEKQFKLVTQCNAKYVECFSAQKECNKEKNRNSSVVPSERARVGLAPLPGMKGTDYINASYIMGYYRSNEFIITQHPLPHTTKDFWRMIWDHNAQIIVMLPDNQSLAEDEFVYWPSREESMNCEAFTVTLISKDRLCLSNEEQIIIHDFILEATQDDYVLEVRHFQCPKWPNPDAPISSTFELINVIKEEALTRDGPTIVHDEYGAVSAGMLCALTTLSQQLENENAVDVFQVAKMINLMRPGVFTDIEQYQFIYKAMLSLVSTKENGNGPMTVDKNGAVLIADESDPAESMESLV
T4 sequence (P23470 20-1445 limits assumed): as above

B1: TH9-0022 (antibody, human IgG1, kappa, L234A L235A, V domains shown)
VH: QSLEESGGRLVTPGTPLTLTCTVSGFSLSSYAMNWVRQAPGKGLEWIGIINSYGSTYYASWAKGRFTISKTSTTVDLKITSPTTEDTATYFCARVTYDSYGYGYAPYGMDLWGPGTLVTVSS
VL: LVMTQTPSSTSNAVGGTVTIKCQASQSIGNVLAWYQQKPGQPPKLLIYAASTLASGVPSRVGGSRSGTEYTLTISGVQREDAATYYCLGSDSDSDIAFGGGTELEILR
notes: also called TH9-022; negative control
binding result [1]: no binding | binding result [2]: no binding | binding result [3]: no binding

B2: TH9-0022 (antibody, human IgG1, kappa, L234A L235A, V domains shown)
VH: QSLEESGGRLVTPGTPLTLTCTVSGFSLSSYAMNWVRQAPGKGLEWIGIINSYGSTYYASWAKGRFTISKTSTTVDLKITSPTTEDTATYFCARVTYDSYGYGYAPYGMDLWGPGTLVTVSS
VL: LVMTQTPSSTSNAVGGTVTIKCQASQSIGNVLAWYQQKPGQPPKLLIYAASTLASGVPSRVGGSRSGTEYTLTISGVQREDAATYYCLGSDSDSDIAFGGGTELEILR
notes: also called TH9-022; negative control IgG1
binding result [4]: no binding

B3: HW-42 chimeric rabbit-human IgG1 LA/LA/PG (antibody, V domains shown)
VH: QSVKESEGGLFKPADTLTLTCTVSGFSLSSNEISWVRQAPGEGLEYIGIIDTGGRAYYAVWARSRSTITRNTNLNTVTLKMTSLTAADTATYFCARGGVDTEWYAFSSWGPGTLVTVPS
VL: SFVLTQPASVQVNLGQTVSLTCTADTLSRRYASWYQQKPGQAPVLLIFRDTSRPSGVPDRFSGSSSGDTATLTISGAQAGDEADYYCATSDGSGSNYQYVFGGGTQLTVTG
notes: Fc-silenced (L234A/L235A/P329G) IgG1, lambda; Alexa Fluor 647-labeled in single-step flow cytometry; Cluster C-1
mAb binding (MFI) [5]: 9870 | Cells stained (%) [6]: 98.8%

B4: HW-113 chimeric rabbit-human IgG1 LA/LA/PG (antibody, V domains shown)
VH: QKQLVESGGGLVQPGGSLTLTCTVSGFSLNKYYMGWFRQAPGKGLEWIGVISRSGDTYYSSWAKGRFTISKASTTVDLRITSPTTEDTATYFCARDASSPGFHGDRLDLWGQGTLVTVSS
VL: SFVLTQPASVQVNLGQTVSLTCTADTLSRSYASWYQQKPGQAPVLLIYRDTSRPSGVPDRFSGSSSGNTATLTISGAQAGDEADYYCATSDGIGSNYLWVFGGGTQLTVTG
notes: Fc-silenced (L234A/L235A/P329G) IgG1, lambda; Alexa Fluor 647-labeled in single-step flow cytometry
mAb binding (MFI) [7]: 27800 | mAb binding (MFI) [8]: 18200 | Cells stained (%) [9]: 98.2% | Cells stained (%) [10]: 99.8%

B5: HW-97 chimeric rabbit-human IgG1 LA/LA/PG (antibody, V domains shown)
VH: QKQLVESGGRLVTPGTPLTLTCTVTGIDLSSHGMSWVRQAPGKGLEWIGVIYPSGSTWYASWARGRFTISKTSTTVDLKMTSLTTEDTATHFCARGDVGGADNNIWGPGTLVTVSS
VL: SFVLTQPASVQVDLGQTVSLTCTAETLSRSYASWYQQKPGQAPVLLIYRDTSRPSGVPDRFSGSSSGNTATLTISGAQAGDEADYYCATSDGSGSSYQYVFGGGTQLTVTG
notes: Fc-silenced (L234A/L235A/P329G) IgG1, lambda; Alexa Fluor 647-labeled in single-step flow cytometry; Prototype of cluster C-97
mAb binding (MFI) [11]: 17900 | Cells stained (%) [12]: 99.9%
